Here are results for 14 molecules from patent US5821046A, “RNA oligonucleotides that bind HIV tat protein” (RiboTargets Holdings PLC, priority 1990, dated 1998).

The test system of data set [1] is HIV-1 tat protein. As to the kind of experiment: direct filter binding assay of tat to TAR RNA (saturation binding, Scatchard analysis). The following applies: direct filter binding; HIV-1 TAR from saturation binding/Scatchard plot, mutants estimated from half-maximal binding; read-out: Kd (dissociation constant of tat binding). As to the method:
The results shown graphically in FIG. 4 are from experiments in which binding reactions (500 ul) contained 40 nMolar^32 P uniformly radiolabelled TAR RNA at a specific activity of 100,000 Ci/mole; 0.5 ug calf thymus DNA; 0.2 ug yeast TRNA; 40 units RNAsin (Promega); 50mm Tris-HCl pH 7.9 and 20 mM KCl. Reaction mixtures were set up on ice and increasing amounts of HIV-1 tat protein were added and the reaction mixtures were filtered through prewashed nitrocellulose filters (Millipore 0.45 uM pore size). The filters were dried and counted by liquid scintillation counting. The fraction of radiolabeled RNA bound was plotted against HIV-1 tat concentration.
Binding was measured by a filter-binding assay as described below under "Method", using monomeric tat protein prepared by CNBr cleavage of a human growth hormone-tat fusion protein expressed in E. coli. Reactions for saturation binding contained labeled TAR RNA [SEQ ID NO: 1] or antisense TAR RNA [SEQ ID NO: 6] at 10 nm and between 0 to 300 nM purified tat protein. Antisense TAR RNA was used as a control, since antisense TAR is unable to form stable complexes with tat in gel-retardation assays (Dingwall et al., 1989).
The stoichiometry of the tat/TAR interaction was determined by varying the TAR RNA concentrations over a wide range, while keeping the tat protein concentration constant near the Kd. For this Scatchard analysis, the tat protein concentration was held constant at 40 nM and the RNA concentration was varied between 7nM and 320 nM. The total amount of labeled RNA was kept constant in the binding reactions, but the specific activity of the RNA was varied. […]
Tat protein was prepared either from beta-galactosidase-tat fusion proteins (6) or from human growth-hormone-tat fusion proteins (85) using an improved method. In brief, inclusion body pellets containing the fusion protein were solubilized in 7M GdHCl, 50 mM Tris-HCl pH8.0, 2 mM EDTA, 2mM DTT and the fusion protein was purified to near homogeneity by ion-exchange chromatography on Q-Sepharose and S-Sepharose (Pharmacia) in buffers containing […], 50 mM Tris-HCl pH8.0, 2mM EDTA, 2mM DTT. The cysteine residues were protected by disulphide-exchange with 20 mM 2-hydroxyethyldisulphide (86), and the protein was cleaved by cyanogen bromide (6). The basic tat protein was then separated from the acidic human growth hormone peptides by ion-exchange chromatography on Q-Sepharose and S-Sepharose in 6M Urea. The protecting groups were then removed from the protein by addition of 10 mM DTT and the protein refolded by stepwise dialysis against 6 m Urea, 5M Urea,3M Urea, 1M Urea and 0M Urea in a buffer containing 50 mM Tris-HCl pH8.0, 100 uM DTT, 10 uM ZnCl2 Tat protein refolded in this manner elutes as a monomer from Superose 12 columns (Pharmacia) and migrates as a single band on polyacrylamide gels. Protein prepared by both methods behaved comparably in binding assays.
A wide variety of parameters affecting the binding of tat protein to TAR RNA were studied and binding conditions were optimized. Binding of tat to TAR has a distinct pH optimum at pH 8.0, but good binding is observed between pH 7.5 and pH 8.5. Tat/TAR complexes are very sensitive to ionic strength. […] Addition of Zn^+2, Cd^+2, Ca^+2, Mg,^+2, Fe^+2 or Fe^+3 ions to the reaction mixtures […]. However, the binding reaction is sensitive to EDTA at greater than 0.1 mM EDTA. Complex formation is also somewhat temperature sensitive. Optimal binding is observed at 0°C. Between 15° C. and 30° C. there is a 30% reduction in complex formation. […]

Data set [2] relates to HIV-1 tat protein. Type of data set: binding. The following applies: 32P-labeled RNA transcript, 0 to 600 ng tat. On the procedure:
i) Gel retardation assays (FIG. 6) Method RNA transcripts were prepared by transcription with either T3 or T7 RNA polymerases of TAR regions residues +1 to +57, cloned between the HindIII and EcoRI sites of the Bluescribe M13+expression vector (Stratagene). RNA transcripts corresponding to HIV-1 TAR [SEQ ID NO: 1], SSA [SEQ ID NO: 3], SAA and SAS [SEQ ID NO: 5] were synthesized from clones linearized with EcoRI and transcribed with T3 RNA polymerase. RNA transcripts corresponding to the antisense HIV-1 TAR […], AAS , ASS [SEQ ID NO: 4], and ASA (not shown) sequences were prepared from the same plasmids linearized with HindIII and transcribed using T7 RNA polymerase. All other RNA molecules were synthesized using T3 RNA polymerase following EcoRI cleavage of the plasmid vector. The RNA products each carry 13 nucleotides of vector sequence at their 5' end and four nucleotides at their 3' ends. […] Transcription mixtures contained 1 ug linearized plasmid, 40 mM Tris-HCl pH 8.0, 10 mM MgCl 2, 2 mM Spermidine-HCl, 50 mM NaCl, 100 uM each ribonucleotide triphosphate, 40 uCi (alpha-^32 P) UTP (410 Ci/m mol) and 10 units of RNA polymerase in a final volume of 30 ul and were incubated at 37° C. for 30 minutes. After phenol extraction and precipitation from ethanol the RNA was purified from a 9% polyacrylamide denaturing gel. The specific activity of the RNA product was determined and appropriate amounts were used in binding assays. Binding reaction mixtures (1 5ul) contained 1 ng of uniformly labeled RNA probe, 0.5 ug calf thymus DNA, 0.2 ug yeast TRNA, 40 units RNAsin (Promega), 50 mM Tris-HCl and 20 mM KCl and 0 to 600 ng tat protein, prepared from E. coli beta-galactosidase-tat fusion proteins, as described previously (6). After incubation at either 30° C. or 4° C. for 10-20 minutes, the reaction mixtures were applied to a 6% non-denaturing polyacrylamide gel (Acrylamide: Bis, 40:0.5) in 3.3 mM sodium acetate, 6.7 mM Tris (adjusted to pH 7.9 with HCl). The gel buffer was recirculated during electrophoresis at 35 mA for approximately 2 hours at room temperature. Gels were dried and exposed to X-ray film at -80° C. using intensifying screens.

Data set [3] relates to HIV-1 tat protein. The experiment in a line: competition filter binding assay, mutant TAR transcripts against labelled HIV-1 TAR RNA (FIG. 7, Table 1). The following applies: 20 nM TAR RNA, 40 nM tat protein.
Protocol: Binding reactions (500 ul) were set up on ice and contained 80 pM ^32 P-labeled TAR RNA (17,600 dpm, 200 uCi/n mol) and unlabeled TAR RNA to give a final concentration of 20 nM, 0.5 ug calf thymus DNA, 0.2 ug yeast tRNA, 40 units RNAsin (Promega), 50 mM Tris HCl and 20 mM KCl. After addition of competitor RNA, binding was initiated by addition of HIV-1 tat protein to a final concentration of 400 ng/ml (40 nM). The binding reaction mixtures were then filtered under reduced pressure through pre-washed nitrocellulose filters (Millipore 0.45 uM pore size) and filters were dried and counted by liquid scintillation counting.
The fraction of^32 P-labeled TAR RNA bound was plotted against the final concentration of competitor RNA. In these experiments reactions included 20 nM TAR and 40 nM tat protein and increasing amounts of unlabeled competitor RNA from 40 nm to 6 uM. […] In theory, 40 nM tat will bind 50% of the input TAR RNA (D1/2) when the total TAR RNA concentration is 56 nM.
For competition experiments, binding reactions (500 ul) were set up on ice and contained 80 pM ^32 P-labeled TAR RNA (17,600 dpm, 200 uCi/n mol) and unlabeled TAR RNA to give a final concentration of 20 nM, 0.5 ug calf thymus DNA, 0.2 ug yeast TRNA, 40 units RNAsin (Promega), 50 mM Tris-HCl pH 7.9 and 20 mM KCl. After addition of 0 to 6 uM competitor RNA, binding was initiated by addition of HIV- 1 tat protein to a final concentration of 400 ng/mi (40 nM). The binding reaction mixtures were then filtered under reduced pressure through pre-washed nitrocellulose filters (Millipore 0.45 u pore size) and filters were dried and counted by liquid scintillation counting.
KRel is the ratio of the D1/2 values for HIV-1 TAR and competitor RNA.
Data set [4] deals with T1, HIV-1 Tat (Human immunodeficiency virus 1, UniProt P04608 P04608:1-86). The experiment in a line: competition; D1/2; unmodified 29-mer 60 nM; 29-mer probe. The following applies: hairpin with U-rich bulge.
The target of data set [5] is T1, HIV-1 Tat. The experiment in a line: competition; D1/2; unmodified 18+15 duplex 65 nM. The following applies: duplex with bulge.
The target in data set [6] is T1, HIV-1 Tat. The experiment in a line: competition; D1/2; wild type 90 nM.

Broadly, the Kd is the equilibrium constant for the complex coming apart.

“Antisense: anti-sense sequence to HIV-1 BRU TAR (antisense GGGUUCCCUAGUUAGCCAGAGAGCUCCCAGGCUCAAAUCUGGUCUAACCAGAGAGACCC; chemistry not given here) [reference compound]”: in the data set with HIV-1 tat protein [1], the Kd was greater than 140 nM. The “complex formation with tat in gel retardation assay” value in the data set with HIV-1 tat protein [2] is on record as “No complexes were formed”.
“HIV-2 TAR: first stem-loop structure of HIV-2 ROD TAR RNA, bulge of two uridine residues (CUGCGGAGAGGCUGGCAGAUUGAGCCCUGGGAGGUUCUCUCCAGCACUAGCAG; RNA, backbone not given here) [reference compound]”: the Kd in the data set on HIV-1 tat protein [1] was 30 nM. For the same molecule, the “KRel (ratio of D1/2 values for HIV-1 TAR and competitor RNA)” value in the data set on HIV-1 tat protein [3] was 0.40. Besides, in the data set with HIV-1 tat protein [3] (read-out: D1/2 (concentration of competitor RNA that reduces binding of HIV-1 tat to HIV-1 TAR RNA to 50%)), the IC50 came to 160 nM. Further, the “complex formation with tat in gel retardation assay” value in the data set on HIV-1 tat protein [2] is “discrete complex formation”.
As to GCCAGAUUUGAGCCUGGGAGCUCUCUGGC (ssRNA, 2'-OMe uridine at U23 (nt 7) [7 (2'-OMe uridine, U23)]) [29-mer 2'-OMeU-23], the IC50 with HIV-1 Tat [4] stood at 50 nM.

B1: 18+15 duplex 4-thioT-24 (dsRNA)
RNA 1: AGCCAGAUTUGAGCAGCU
RNA 2: AGCUGCUCUCUGGCU
modifications: 4-thio-2'-deoxythymidine at U24 (nt 9) [9 (strand 1, 4-thio-2'-deoxythymidine)]
In the data set with HIV-1 Tat [5], B1 had an IC50 of 25 nM.

B2: TAR bulge CC (ssRNA)
RNA: GGGUCUCUCUGGUUAGACCAGACCGAGCCUGGGAGCUCUCUGGCUAACUAGGGAACCC
Molecule B2 had an IC50 with HIV-1 Tat [6] of 2370 nM.
As to GCCAGAUUUGAGCCUGGGAGCUCUCUGGC (ssRNA, 2'-deoxyuridine at U23 (nt 7) [7 (2'-deoxyuridine, U23)]) [29-mer dU-23], the IC50 with HIV-1 Tat [4] stood at 55 nM.

B3: TAR bulge CCC (ssRNA)
RNA: GGGUCUCUCUGGUUAGACCAGACCCGAGCCUGGGAGCUCUCUGGCUAACUAGGGAACCC
modifications: [23,24,25]
In turn, B3 returned an IC50 in the data set with HIV-1 Tat [6] of 1780 nM.

B4: TAR U40 to A40 (ssRNA)
RNA: GGGUCUCUCUGGUUAGACCAGAUUUGAGCCUGGGAGCUCACUGGCUAACUAGGGAACCC
B4: the IC50 in the data set with HIV-1 Tat [6] came out at 5620 nM.

B5: TAR C39 to G39 (ssRNA)
RNA: GGGUCUCUCUGGUUAGACCAGAUUUGAGCCUGGGAGCUGUCUGGCUAACUAGGGAACCC
Molecule B5 had an IC50 with HIV-1 Tat [6] of 1500 nM.

B6: TAR G26 to A26; C39 to U39 (ssRNA)
RNA: GGGUCUCUCUGGUUAGACCAGAUUUAAGCCUGGGAGCUUUCUGGCUAACUAGGGAACCC
In turn, B6 had an IC50 with HIV-1 Tat [6] of 631 nM.

B7: TAR A22 to U22; U40 to A40 (ssRNA)
RNA: GGGUCUCUCUGGUUAGACCAGUUUUGAGCCUGGGAGCUCACUGGCUAACUAGGGAACCC
B7 registered an IC50 with HIV-1 Tat [6] of 220 nM.

B8: TAR G26 to C26; C39 to G39 (ssRNA)
RNA: GGGUCUCUCUGGUUAGACCAGAUUUCAGCCUGGGAGCUGUCUGGCUAACUAGGGAACCC
Regarding B8, the IC50 with HIV-1 Tat [6] turned out to be 2370 nM.

B9: TAR bulge CUC (ssRNA)
RNA: GGGUCUCUCUGGUUAGACCAGACUCGAGCCUGGGAGCUCUCUGGCUAACUAGGGAACCC
modifications: [23,25]
With B9, in the data set with HIV-1 Tat [6], the IC50 stood at 2140 nM.

B10: 18+15 duplex 4-thioT-23 (dsRNA)
RNA 1: AGCCAGATUUGAGCAGCU
RNA 2: AGCUGCUCUCUGGCU
modifications: 4-thio-2'-deoxythymidine at U23 (nt 8) [8 (strand 1, 4-thio-2'-deoxythymidine)]
B10: in the data set with HIV-1 Tat [5], the IC50 worked out at 32 nM.
